Where no end group is shown, it is not given here.
Columns and labels:
HA-CDK2 = molecular target: T1, HA-CDK2 (Homo sapiens, UniProt P24941); format: binding
T1 construct: made in house; host or cells: High Five insect cells, baculovirus

CDK2 [1] = molecular target: T2, CDK2 (Homo sapiens, UniProt P20248+P24941); format: biochemical
T2 construct: hemagglutinin (HA); made in house; host or cells: Sf9 or High Five insect cells, baculovirus co-infection

CDK2 [2] = assay: Effect of E7 on p21/p27 inhibition of CDK2 kinase activity; format: biochemical
Experimental: Histone H1 was chosen as the substrate in the kinase assays since pRb, a physiological CDK2 substrate, is known to bind E7 and could interfere with the assay.
For some assays, HEK293 cell lysate (100 μg total protein, prepared as described above) was preincubated with purified GST-31E7 protein in PBS in the presence of p13 agarose beads (Calbiochem) at 4° C. for one hour, and subsequently incubated with purified His-p27 for 30 min at 4° C. Preincubation was carried out to permit protein complex formation, while p13 agarose beads bind cyclin-dependent kinase complexes to facilitate purification [Dreatta, et al., Cell 56:829-838 (1989)]. After collection and washing four times with PBS, the beads were washed two additional times with KIP buffer containing 50 mM Tris-Cl, pH 7.5, 10 mM MgCl2, 5 mM EGTA, 2 mM DTT, and 10 μM ATP. […] Phosphorylated proteins were analyzed by SDS-PAGE followed by autoradiography and PhosphorImager® analysis.
In other assays, purified cyclin A- or cyclin E-complexed CDK2 was included. […] Kinase activity was measured following addition of 1 μl of 2 mCi/ml [γ-^32P] […] The reaction was stopped by adding SDS sample buffer, and phosphorylated proteins were analyzed by SDS-PAGE followed by autoradiography and PhosphorImager® analysis.

GST-cyclinA = molecular target: T3, GST-cyclinA (Homo sapiens, UniProt P20248); format: binding; details: purified HPV16E7 4 μg; SDS-PAGE and immunoblotting
T3 construct: made in house; host or cells: High Five insect cells, baculovirus

cyclin A/CDK2 = molecular target: T4, cyclin A/CDK2 (Homo sapiens, UniProt P20248+P24941); format: biochemical
T4 construct: hemagglutinin (HA); made in house; host or cells: Sf9 or High Five insect cells, baculovirus co-infection

cyclin E/CDK2 = molecular target: T5, cyclin E/CDK2 (Homo sapiens, UniProt P24941); format: biochemical
T5 construct: hemagglutinin (HA); made in house; host or cells: Sf9 or High Five insect cells, baculovirus co-infection

MAP kinase 1 = assay: Kinase assay MAP kinase 1; format: biochemical
Experimental: (§1) In an attempt to determine if the E7 effects on kinase activity were specific for members of the cyclin-dependent kinase family, various kinase/substrate combinations were examined for enhanced activity in the presence of E7.
(§2) When HPV16-E7 was added to either cyclinA/CDK2 or cyclinE/CDK2 using histoneH1 as the substrate, a large increase (26-fold and 13-fold) over controls was noted as described above. When the retinoblastoma (pRb) protein was used as a substrate for cyclinE/CDK2 a 1.9-fold increase over background was noted.

CDK5 complexed with p25 = CDK5 complexed with p25 (Homo sapiens, UniProt Q00535); assay: Kinase assay CDK5/p25, histone H1 phosphorylation; format: biochemical; details: over controls
CDC2/cyclinB = CDC2/cyclinB (Homo sapiens, UniProt P06493); assay: Kinase assay CDC2/cyclinB; format: biochemical
Experimental: as §1, §2

pRb = molecular target: T6, pRb (Homo sapiens, UniProt P06400); assay: E7 binding assay (GST-E7 on glutathione-agarose beads), pRb
T6 construct: purchased QED Bioscience Inc
T6 sequence (P06400 1-928): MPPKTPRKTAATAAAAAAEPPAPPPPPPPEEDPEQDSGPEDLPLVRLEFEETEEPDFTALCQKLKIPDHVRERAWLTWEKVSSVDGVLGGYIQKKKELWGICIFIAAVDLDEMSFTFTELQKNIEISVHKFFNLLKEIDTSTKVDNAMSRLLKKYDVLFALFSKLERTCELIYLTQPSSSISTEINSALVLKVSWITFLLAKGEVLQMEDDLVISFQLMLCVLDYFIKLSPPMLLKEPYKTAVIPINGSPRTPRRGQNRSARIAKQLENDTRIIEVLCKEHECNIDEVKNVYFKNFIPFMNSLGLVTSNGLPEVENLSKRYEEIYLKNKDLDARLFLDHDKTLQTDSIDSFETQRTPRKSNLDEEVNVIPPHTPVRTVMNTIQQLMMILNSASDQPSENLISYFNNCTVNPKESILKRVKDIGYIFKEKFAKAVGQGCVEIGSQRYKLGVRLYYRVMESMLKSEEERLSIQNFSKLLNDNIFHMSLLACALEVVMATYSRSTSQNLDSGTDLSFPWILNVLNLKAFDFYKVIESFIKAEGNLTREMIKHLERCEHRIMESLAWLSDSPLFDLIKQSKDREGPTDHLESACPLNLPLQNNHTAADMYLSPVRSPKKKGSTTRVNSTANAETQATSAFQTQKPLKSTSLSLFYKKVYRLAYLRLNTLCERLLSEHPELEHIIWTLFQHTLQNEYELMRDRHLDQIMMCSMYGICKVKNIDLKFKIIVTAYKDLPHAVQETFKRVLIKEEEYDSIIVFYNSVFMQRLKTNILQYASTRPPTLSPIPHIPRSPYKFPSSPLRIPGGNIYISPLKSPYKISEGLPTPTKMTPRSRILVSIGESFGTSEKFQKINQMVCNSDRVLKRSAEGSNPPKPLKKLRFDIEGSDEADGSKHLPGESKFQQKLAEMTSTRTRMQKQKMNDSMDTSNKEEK
Experimental: For HPV31E7, the amplification product was subcloned into pGEX-4T-3 previously digested with BamHI, while HPV6b and HPV16 E7 amplification products were subcloned into pGEX-4T-3 previously digested with BamHI and XhoI. Proper orientation was determined using restriction mapping, sequence analysis was carried out using Perkin-Elmer ABI-Prism® technology, and the expression constructs were individually transfected into a JM 109 strain of E. coli. Bacteria in log-growth phase were harvested by centrifugation after a four hour induction with 0.5 mM IPTG at 30° C. […] After extensive washing with PBS, the GST-E7-coupled beads were stored at 4° C. until use. Protein levels were measured using a BioRad protein assay kit, and purified protein preparations were examined by SDS-PAGE followed by Coomassie blue staining and Western blotting. […]
GST-16E7 or GST-31E7 fusion proteins bound to glutathione-agarose beads were incubated with either purified pRb (QED Bioscience Inc.), His-p21, His-p21N, His-p21C, His-p27, His-p27N, His-p27C, or HEK293 cell lysate at 4° C. for two hours in binding buffer containing 20 mM HEPES, pH 7.4, 10 mM KCl, 1 mM EDTA, 1 mM EGTA, 140 mM NaCl, 13% glycerol, 1 mM DTT, and 1× protease inhibitor tablet (Boehringer Mannheim). […] Eluted proteins were separated using 15% SDS-PAGE and the proteins were analyzed by Coomassie blue staining and Western blotting.

T4 sequence (P20248 whole entry, one chain of several): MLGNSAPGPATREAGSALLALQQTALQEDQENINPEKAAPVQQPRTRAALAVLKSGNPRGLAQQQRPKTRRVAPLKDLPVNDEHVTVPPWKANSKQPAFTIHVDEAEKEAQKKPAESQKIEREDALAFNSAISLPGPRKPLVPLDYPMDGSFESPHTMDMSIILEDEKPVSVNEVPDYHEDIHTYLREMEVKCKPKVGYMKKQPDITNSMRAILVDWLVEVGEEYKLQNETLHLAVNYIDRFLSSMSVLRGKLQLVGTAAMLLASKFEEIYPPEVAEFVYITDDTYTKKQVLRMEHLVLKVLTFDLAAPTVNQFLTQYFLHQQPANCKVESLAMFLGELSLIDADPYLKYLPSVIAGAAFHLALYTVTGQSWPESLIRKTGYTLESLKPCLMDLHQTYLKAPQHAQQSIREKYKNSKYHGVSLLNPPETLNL
T2 sequence (P20248 whole entry, one chain of several): as above
T3 sequence (P20248 whole entry): as the sequence (P20248 whole entry, one chain of several) above
Chain of CDC2/cyclinB (P06493 whole entry, species assumed): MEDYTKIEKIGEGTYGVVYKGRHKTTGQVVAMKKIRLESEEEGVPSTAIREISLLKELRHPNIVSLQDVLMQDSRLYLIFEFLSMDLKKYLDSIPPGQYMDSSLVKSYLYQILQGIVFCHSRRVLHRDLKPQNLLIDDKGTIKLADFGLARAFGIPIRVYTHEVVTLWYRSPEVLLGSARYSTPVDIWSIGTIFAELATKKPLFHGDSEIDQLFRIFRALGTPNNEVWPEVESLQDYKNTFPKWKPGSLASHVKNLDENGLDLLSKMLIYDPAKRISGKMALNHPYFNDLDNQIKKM
Chain of CDC2/cyclinB (P14635 whole entry partner, species assumed): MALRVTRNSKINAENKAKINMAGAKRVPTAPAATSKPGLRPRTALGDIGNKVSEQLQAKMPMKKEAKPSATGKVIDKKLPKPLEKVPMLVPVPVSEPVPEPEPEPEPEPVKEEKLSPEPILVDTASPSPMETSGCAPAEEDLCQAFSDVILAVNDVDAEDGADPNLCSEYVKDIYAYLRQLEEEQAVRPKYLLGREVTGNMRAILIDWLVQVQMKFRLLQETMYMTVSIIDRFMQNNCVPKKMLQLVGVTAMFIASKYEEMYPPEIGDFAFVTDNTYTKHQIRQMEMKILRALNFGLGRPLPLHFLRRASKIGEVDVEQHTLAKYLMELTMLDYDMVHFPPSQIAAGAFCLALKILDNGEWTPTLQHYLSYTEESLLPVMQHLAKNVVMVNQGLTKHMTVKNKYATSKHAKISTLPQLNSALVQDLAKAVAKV
Chain of CDK5 complexed with p25 (Q00535 whole entry): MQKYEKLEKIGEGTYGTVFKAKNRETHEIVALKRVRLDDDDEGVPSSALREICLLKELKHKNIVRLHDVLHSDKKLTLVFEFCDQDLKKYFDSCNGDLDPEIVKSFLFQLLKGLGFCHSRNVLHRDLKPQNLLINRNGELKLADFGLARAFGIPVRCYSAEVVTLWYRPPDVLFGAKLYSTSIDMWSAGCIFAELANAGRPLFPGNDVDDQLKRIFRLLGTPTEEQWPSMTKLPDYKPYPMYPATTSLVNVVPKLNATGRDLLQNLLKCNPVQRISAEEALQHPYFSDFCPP
Chain of CDK5 complexed with p25 (Q15078 99-307 partner limits assumed): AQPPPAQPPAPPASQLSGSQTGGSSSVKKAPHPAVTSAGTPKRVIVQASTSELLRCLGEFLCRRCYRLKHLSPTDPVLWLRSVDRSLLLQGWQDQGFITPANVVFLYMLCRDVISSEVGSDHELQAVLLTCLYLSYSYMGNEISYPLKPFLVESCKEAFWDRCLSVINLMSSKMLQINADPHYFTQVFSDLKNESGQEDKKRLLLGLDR

**Q.** For “E7: HPV E7 protein or GST-E7 fusion, strain not named at the place; b203 used purified HPV16E7”, which “binding to beads with immobilized HA-CDK2” value (HA-CDK2) is on record?
**A.** no binding

**Q.** What about the “peak stimulatory activity (concentration)” value (CDK2 [1]) of the same molecule?
**A.** approximately 0.29 μM

**Q.** What about the EC50 (CDK2 [1]; read-out: 50% stimulatory concentration of E7) of the same molecule?
**A.** ~180 nM

**Q.** And the “effect on p21- and p27-dependent inhibition of cyclin E/CDK2 activity” value (CDK2 [2]; histone H1 substrate)?
**A.** little or no effect

**Q.** What about the “effect on p27 inhibition of CDK2 activity” value (CDK2 [2]; purified cyclin E/CDK2 and cyclin A/CDK2, solution kinase assay) of the same molecule?
**A.** little or no effect

**Q.** What about the “binding to beads containing GST-cyclinA” value (GST-cyclinA) of the same molecule?
**A.** binding

**Q.** And the “phosphorylation of HPV E2 by CDK2/cyclinA” value (cyclin A/CDK2)?
**A.** enhanced

**Q.** How did the “induced kinase activity, level relative to that by full length E7” value (CDK2 [1]) turn out when “GST-HPV16-E7(39-98): HPV16 E7 amino terminal deletion, residues 39-98, GST fusion (DGPAGQAEPDRAHYNIVTFCCKCDSTLRLCVQSTHVDIRTLEDLLMGTLGIVCPICSQKP; cysteine pairing not given here; also: GST fusion partner left off)” was run?
**A.** 18%

**Q.** And the “activation of cyclinA/CDK2, % of the activation activity of full length GST-HPV 16 E7” value (cyclin A/CDK2)?
**A.** 28.6%

**Q.** And the “activation potential, repeat experiment” value (cyclin A/CDK2)?
**A.** 18%

B1: GST-16E7: HPV16 E7 protein expressed as a glutathione-S-transferase (GST) fusion protein (protein)
chain: MHGDTPTLHEYMLDLQPETTDLYCYEQLNDSSEEEDEIDGPAGQAEPDRAHYNIVTFCCKCDSTLRLCVQSTHVDIRTLEDLLMGTLGIVCPICSQKP
modifications: left off: a dimerising Fc or GST
**Q.** With B1 as the molecule, how does the “increase in cyclinE/CDK2 kinase activity” value (cyclin E/CDK2) read?
**A.** 13 fold

**Q.** What about the “increase in pRb kinase activity” value (cyclin E/CDK2) of the same molecule?
**A.** 1.9 fold

**Q.** What about the “stimulation of cyclin E/CDK2 phosphorylation of MBP-HPV 18 E1 fusion protein” value (cyclin E/CDK2) of the same molecule?
**A.** 2.3 fold

**Q.** What about the “MAP kinase 1 activity” value (MAP kinase 1) of the same molecule?
**A.** unaffected

**Q.** And the “increase in H1 phosphorylation by CDK5 complexed with p25” value (CDK5 complexed with p25)?
**A.** 4.5 fold

**Q.** What about the “effect on cyclin A/CDK2 histone H1 kinase activity” value (cyclin A/CDK2) of the same molecule?
**A.** significant effect

**Q.** What about the Km (cyclin A/CDK2; read-out: Km for histone H1) of the same molecule?
**A.** 1.1 µM

**Q.** And the CDC2/cyclinB activity (CDC2/cyclinB)?
**A.** unaffected

B2: GST-31E7: HPV31 E7 protein expressed as a GST fusion protein (protein)
chain: MRGETPTLQDYVLDLQPEATDLHCYEQLPDSSDEEDVIDSPAGQAEPDTSNYNIVTFCCQCKSTLRLCVQSTQVDIRILQELLMGSFGIVCPNCSTRL
modifications: left off: a dimerising Fc or GST
**Q.** For B2, which “binding to pRb in HEK 293 cell lysate” value (pRb; HEK 293 cell lysate) is on record?
**A.** bound

**Q.** What about the “binding to purified pRb” value (pRb; purified pRb, SDS-PAGE, Coomassie and Western blot) of the same molecule?
**A.** bound

**Q.** What about the “effect on cyclin A/CDK2 histone H1 kinase activity” value (cyclin A/CDK2) of the same molecule?
**A.** significant effect

B3: GST-HPV16-E7(16-98): GST-E7 construct encoding HPV16 amino acids 16-98 (protein)
chain: QPETTDLYCYEQLNDSSEEEDEIDGPAGQAEPDRAHYNIVTFCCKCDSTLRLCVQSTHVDIRTLEDLLMGTLGIVCPICSQKP
modifications: left off: a dimerising Fc or GST
**Q.** Which “activation of cyclinA/CDK2, % of the activation activity of full length GST-HPV 16 E7” value (cyclin A/CDK2) does the source give for B3 here?
**A.** 53%
